Results published in IntAct's records for PubMed 22745600.
Blank lines part the entries; values can stand above or below the substance they belong to.

Key:
pbx1_mouse Pbx1 = pbx1_mouse Pbx1 (UniProt P41778)
exd_drome exd [1] = target: exd_drome exd (UniProt P40427)
exd_drome exd [2] = target: exd_drome exd (UniProt P40427); remark: listed apart in the source
exd_drome exd [3] = target: exd_drome exd (UniProt P40427); remark: listed apart in the source

exd_drome exd, sequence (P40427 whole entry): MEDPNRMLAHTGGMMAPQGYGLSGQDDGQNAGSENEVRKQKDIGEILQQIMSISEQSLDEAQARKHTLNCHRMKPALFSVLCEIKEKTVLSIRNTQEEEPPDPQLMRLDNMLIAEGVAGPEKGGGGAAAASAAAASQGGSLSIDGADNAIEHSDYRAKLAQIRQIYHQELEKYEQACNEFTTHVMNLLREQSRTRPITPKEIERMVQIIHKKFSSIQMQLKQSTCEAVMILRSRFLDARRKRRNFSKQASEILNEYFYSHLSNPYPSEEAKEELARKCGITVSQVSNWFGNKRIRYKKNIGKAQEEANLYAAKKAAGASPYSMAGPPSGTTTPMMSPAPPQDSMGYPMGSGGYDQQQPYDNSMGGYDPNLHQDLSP
Homeotic protein labial (Drosophila melanogaster (Fruit fly)), P10105 K393A;W394A;M395A, sequence (P10105 other isoform, or with tags, fused parts or gaps K393A;W394A;M395A): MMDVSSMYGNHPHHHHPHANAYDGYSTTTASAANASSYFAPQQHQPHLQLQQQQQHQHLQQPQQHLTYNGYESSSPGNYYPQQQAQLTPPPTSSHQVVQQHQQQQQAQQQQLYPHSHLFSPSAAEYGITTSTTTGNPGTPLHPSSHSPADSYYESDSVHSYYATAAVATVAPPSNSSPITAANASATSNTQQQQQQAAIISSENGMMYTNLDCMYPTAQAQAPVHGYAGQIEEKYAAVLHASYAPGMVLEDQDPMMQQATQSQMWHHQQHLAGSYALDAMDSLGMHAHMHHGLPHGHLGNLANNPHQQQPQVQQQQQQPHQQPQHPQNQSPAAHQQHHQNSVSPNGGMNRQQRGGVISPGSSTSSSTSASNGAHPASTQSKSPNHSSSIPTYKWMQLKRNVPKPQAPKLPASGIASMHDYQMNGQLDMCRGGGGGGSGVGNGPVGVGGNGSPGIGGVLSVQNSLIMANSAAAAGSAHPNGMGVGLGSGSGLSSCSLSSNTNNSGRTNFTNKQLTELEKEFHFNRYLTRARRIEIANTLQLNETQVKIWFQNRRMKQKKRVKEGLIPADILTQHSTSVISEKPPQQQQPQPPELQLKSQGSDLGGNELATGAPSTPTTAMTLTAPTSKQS
Homeobox protein abdominal-A (Drosophila melanogaster (Fruit fly)), P29555 E462A;I463A;N464A;E465A, sequence (P29555 whole entry E462A/I463A/N464A/E465A): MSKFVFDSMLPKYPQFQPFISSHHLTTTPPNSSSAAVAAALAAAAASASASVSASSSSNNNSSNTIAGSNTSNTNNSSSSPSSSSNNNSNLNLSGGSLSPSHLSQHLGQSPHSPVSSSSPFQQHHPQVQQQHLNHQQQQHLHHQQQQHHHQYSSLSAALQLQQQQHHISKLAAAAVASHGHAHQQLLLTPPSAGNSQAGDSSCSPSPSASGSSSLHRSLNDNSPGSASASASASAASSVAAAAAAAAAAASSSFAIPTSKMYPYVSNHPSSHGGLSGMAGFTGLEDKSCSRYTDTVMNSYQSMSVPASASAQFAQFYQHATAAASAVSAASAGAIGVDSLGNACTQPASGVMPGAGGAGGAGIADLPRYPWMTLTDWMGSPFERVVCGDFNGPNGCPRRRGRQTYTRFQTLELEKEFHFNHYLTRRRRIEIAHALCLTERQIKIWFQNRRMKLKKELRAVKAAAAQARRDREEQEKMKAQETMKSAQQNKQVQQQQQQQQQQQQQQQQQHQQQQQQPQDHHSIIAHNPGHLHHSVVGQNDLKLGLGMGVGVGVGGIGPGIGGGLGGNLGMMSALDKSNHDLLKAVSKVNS
pbx1_mouse Pbx1, sequence (P41778 whole entry): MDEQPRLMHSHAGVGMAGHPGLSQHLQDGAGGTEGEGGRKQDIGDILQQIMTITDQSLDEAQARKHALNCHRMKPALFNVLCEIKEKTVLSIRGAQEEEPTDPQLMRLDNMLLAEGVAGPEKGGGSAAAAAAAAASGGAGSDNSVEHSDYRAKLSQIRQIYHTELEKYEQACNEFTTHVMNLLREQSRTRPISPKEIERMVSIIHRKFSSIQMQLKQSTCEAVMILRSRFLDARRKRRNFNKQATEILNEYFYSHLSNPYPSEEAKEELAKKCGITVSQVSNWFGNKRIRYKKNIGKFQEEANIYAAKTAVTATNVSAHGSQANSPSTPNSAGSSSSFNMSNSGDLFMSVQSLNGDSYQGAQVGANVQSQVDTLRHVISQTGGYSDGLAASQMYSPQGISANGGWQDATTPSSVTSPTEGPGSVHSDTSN
Homeotic protein ultrabithorax (Drosophila melanogaster (Fruit fly)), P83949 K358A;E359A;N361A;E362A;Q363A, sequence (P83949 whole entry K358A/E359A/N361A/E362A/Q363A): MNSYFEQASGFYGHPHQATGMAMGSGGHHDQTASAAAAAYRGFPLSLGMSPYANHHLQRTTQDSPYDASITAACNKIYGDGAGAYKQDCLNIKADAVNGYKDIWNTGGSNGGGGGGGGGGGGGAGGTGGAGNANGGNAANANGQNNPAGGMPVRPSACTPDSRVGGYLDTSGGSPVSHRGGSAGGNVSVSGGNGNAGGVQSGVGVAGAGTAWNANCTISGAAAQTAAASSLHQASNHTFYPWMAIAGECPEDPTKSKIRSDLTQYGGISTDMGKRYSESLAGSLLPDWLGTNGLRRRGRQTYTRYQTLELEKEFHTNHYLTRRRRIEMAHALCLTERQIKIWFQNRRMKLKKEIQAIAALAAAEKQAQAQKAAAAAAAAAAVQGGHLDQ
Homeobox protein Hox-B8 (Mus musculus), P09632 W137A;M138A, sequence (P09632 whole entry W137A/M138A): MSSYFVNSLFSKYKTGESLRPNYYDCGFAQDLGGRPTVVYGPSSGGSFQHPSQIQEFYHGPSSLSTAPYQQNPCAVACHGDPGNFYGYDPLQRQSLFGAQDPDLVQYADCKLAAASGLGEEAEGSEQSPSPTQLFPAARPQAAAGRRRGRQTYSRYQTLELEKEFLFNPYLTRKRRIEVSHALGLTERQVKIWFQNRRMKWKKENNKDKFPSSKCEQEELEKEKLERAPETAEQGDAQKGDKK
Homeobox protein abdominal-A (Drosophila melanogaster (Fruit fly)), P29555 T375A;D376A;W377A, sequence (P29555 whole entry T375A/D376A/W377A): as the sequence (P29555 whole entry E462A/I463A/N464A/E465A) above, with T375A, D376A, W377A, A462E, A463I, A464N, A465E counted along it

Substance: Homeobox protein Hox-B8 (Mus musculus), P09632 W137A;M138A
effect of a mutation on the interaction (pbx1_mouse Pbx1): decreasing interaction strength

Substance: Homeobox protein abdominal-A (Drosophila melanogaster (Fruit fly)), P29555 T375A;D376A;W377A
effect of a mutation on the interaction (exd_drome exd [2]): decreasing interaction strength

Substance: Homeotic protein labial (Drosophila melanogaster (Fruit fly)), P10105 K393A;W394A;M395A
effect of a mutation on the interaction (exd_drome exd [3]): decreasing interaction strength

The next lines start with the values.

effect of a mutation on the interaction (exd_drome exd [1]): decreasing interaction strength
Substance: Homeotic protein ultrabithorax (Drosophila melanogaster (Fruit fly)), P83949 K358A;E359A;N361A;E362A;Q363A

effect of a mutation on the interaction (exd_drome exd [2]): decreasing interaction strength
Substance: Homeobox protein abdominal-A (Drosophila melanogaster (Fruit fly)), P29555 E462A;I463A;N464A;E465A
